According to US20250352661A1 (MYTHIC THERAPEUTICS, published 2025):

Assays:
[1] = molecular target: T1, LRRC15 on LRRC15 positive cell lines SAOS2 and G292 (UniProt Q8TF66 22-581, limits assumed); assay: cell binding on SAOS2 cells (LRRC15 positive), pH 7.4; parameters: unit not given here
T1 construct: whole, on cells
T1 sequence (looked up): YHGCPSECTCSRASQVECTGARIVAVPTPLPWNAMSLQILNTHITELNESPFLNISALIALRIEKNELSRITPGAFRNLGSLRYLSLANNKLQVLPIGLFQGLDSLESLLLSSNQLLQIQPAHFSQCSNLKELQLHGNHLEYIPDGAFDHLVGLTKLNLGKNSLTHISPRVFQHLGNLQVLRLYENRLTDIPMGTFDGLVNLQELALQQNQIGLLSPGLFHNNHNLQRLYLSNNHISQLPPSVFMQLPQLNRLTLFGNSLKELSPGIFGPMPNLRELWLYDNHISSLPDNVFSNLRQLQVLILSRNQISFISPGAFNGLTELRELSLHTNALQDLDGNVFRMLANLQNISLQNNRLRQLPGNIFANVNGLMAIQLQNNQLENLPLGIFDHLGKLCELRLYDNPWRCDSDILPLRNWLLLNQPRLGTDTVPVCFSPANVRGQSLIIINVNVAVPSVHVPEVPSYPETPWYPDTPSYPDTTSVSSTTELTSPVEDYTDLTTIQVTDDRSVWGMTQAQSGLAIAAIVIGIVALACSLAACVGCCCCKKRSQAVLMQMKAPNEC

[2] = molecular target: T1, LRRC15 on LRRC15 positive cell lines …; assay: cell binding on G292 cells (LRRC15 positive), pH 7.4; parameters: unit not given here
[3] = molecular target: T2, LRRC15 on the surface of LRRC15+ cells (SAOS-2, U87MG) (UniProt Q8TF66 22-581, limits assumed); assay: cell-based or functional assay
T2 sequence (looked up): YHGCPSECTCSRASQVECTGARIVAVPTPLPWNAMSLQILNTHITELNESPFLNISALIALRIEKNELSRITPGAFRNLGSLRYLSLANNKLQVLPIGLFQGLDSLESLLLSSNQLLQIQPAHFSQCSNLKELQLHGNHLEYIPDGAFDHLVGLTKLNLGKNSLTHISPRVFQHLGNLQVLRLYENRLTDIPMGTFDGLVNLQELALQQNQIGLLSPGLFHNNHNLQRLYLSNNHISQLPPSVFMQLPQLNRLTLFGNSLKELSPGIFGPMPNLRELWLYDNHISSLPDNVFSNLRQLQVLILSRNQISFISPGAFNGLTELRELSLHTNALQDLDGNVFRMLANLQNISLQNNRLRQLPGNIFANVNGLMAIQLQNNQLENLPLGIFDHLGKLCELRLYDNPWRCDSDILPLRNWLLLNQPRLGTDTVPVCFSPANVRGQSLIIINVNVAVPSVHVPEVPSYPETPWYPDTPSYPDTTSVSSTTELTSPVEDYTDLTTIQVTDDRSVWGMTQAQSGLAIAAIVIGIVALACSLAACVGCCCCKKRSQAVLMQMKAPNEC

[4] = molecular target: T3, Human LRRC15 Protein, His Tag (Acro Biosystems) (human, UniProt Q8TF66 22-538, limits assumed); assay: BLI; dissociation pH 7.4 black, pH 5.4 grey [2/2); D00007 FIG. 1E (2/2]
T3 sequence (looked up): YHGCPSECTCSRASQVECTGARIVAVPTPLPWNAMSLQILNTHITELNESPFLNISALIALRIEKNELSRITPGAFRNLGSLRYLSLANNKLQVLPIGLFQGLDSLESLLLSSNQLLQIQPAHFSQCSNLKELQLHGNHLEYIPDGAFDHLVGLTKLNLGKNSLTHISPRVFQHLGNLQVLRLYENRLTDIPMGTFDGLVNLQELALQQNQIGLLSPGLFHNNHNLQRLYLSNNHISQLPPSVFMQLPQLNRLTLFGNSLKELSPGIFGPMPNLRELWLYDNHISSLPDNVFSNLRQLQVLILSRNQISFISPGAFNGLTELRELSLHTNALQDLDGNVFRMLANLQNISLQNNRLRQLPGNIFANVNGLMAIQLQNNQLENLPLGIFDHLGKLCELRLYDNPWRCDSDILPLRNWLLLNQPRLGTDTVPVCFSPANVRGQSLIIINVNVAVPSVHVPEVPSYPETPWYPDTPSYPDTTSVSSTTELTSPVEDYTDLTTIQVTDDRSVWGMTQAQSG
Source text: For each individual plot, antigen binding proteins were captured on anti-human Fc biosensors and associated with LRRC15 at pH 7.4. Dissociation was at pH 7.4 (black) or pH 5.4 (grey). Major X-axis ticks=100 seconds, with left dashed vertical line=0 seconds. Major Y-axis ticks=0.5 nm and octet plots are shown MYT5712 and MYT6080-MYT6121.
Multiple LRRC15-binding monoclonal antibodies have been described in the literature and can be used as a template for engineering pH-dependent binding. We selected discovery RabMAb clone 15G7 (rabbit VH SEQ ID NO: 378, rabbit VL SEQ ID NO: 451; humanized VH SEQ ID NO: 382, humanized VL SEQ ID NO: 455) as a LRRC15-binding monoclonal antibody for pH-engineering via histidine scanning. […] To generate pH-dependent sequence variants, individual amino acid residues within the heavy chain CDRs were systematically substituted with a histidine (or alanine if H was already present in a given position; e.g., MYT6099), one at a time (rabbit, MYT6080-6121). Desirable mutations were transferred to a humanized framework (humanized, MYT 8387-8411). After allowing for four days of protein expression, cell culture supernatants were collected, quantified by SDS-PAGE analysis, and the pH dependence of the variant was evaluated using biolayer interferometry (BLI) on an Octet RED 96e instrument. Briefly, cell culture supernatants were diluted based on qualitative expression level of the variant determined by visual examination of SDS-PAGE gels, 5 μL of cell culture supernatant was diluted into 195 μL of 1×PBST, pH 7.4 for high expressors, 25 μL of cell culture supernatant was diluted into 175 μL of 1×PBST, pH 7.4 for medium expressors and 100 μL of cell culture supernatant was diluted into 100 μL of 1×PBST, pH 7.4 for low expressors for loading onto the sensor tips.

B1: MYT8483 (antibody, IgG1, V domains shown)
VH: EVQLVESGGGLVQPGGSLRLSCTASGFSFSGSYWICWVRQAPGKGLEWVGCINGGSLDITYYASWAKGRFTISRDTSKNTVYLQKTSLRAEDTAVYYCASDTSYTAYGNFYFNLWGQGTLVTVSS
VL: EIVMTQSPSPLSASVGDRVIITCQSSQSVLNNNWLAWYQQKPGKAPKLLIYDASSLASGVPSRFSGSGSGAEFTLTISSLQPDDFATYYCQGEFSCGSADCNAFGQGTKLTVL
notes: Humanized 24D9; also called hu24D9; Parental
Affinity [1]: 1.65
Affinity [2]: 2.07

B2: MYT8500 (antibody, V domains shown)
VH: EVQLVESGGGLVQPGGSLRLSCTASGFSFSGSYWICWVRQAPGKGLEWVGCINGGSHDITYYASWAKGRFTISRDTSKNTVYLQKTSLRAEDTAVYYCASDTSYTAYGNFYFNLWGQGTLVTVSS
VL: EIVMTQSPSPLSASVGDRVIITCQSSQSVLNNNWLAWYQQKPGKAPKLLIYDASSLASGVPSRFSGSGSGAEFTLTISSLQPDDFATYYCQGEFSCGSADCNAFGQGTKLTVL
notes: also called hu 24D9 HC Hydrophobicity Variant; hu24D9 HC Dev
Affinity [1]: 1.22
Affinity [2]: 2.21

B3: MYT8391-c-ADC (antibody, human IgG1, kappa, V domains shown)
VH: EVQLVESGGGLVQPGGSLRLSCTASGLDFRRTNYICWVRQAPGKGLEWVGCIYIADVVHYYASWAKGRFTFSRDTSKNTVYLQMNSLRAEDTAVYYCARGADGGFHYGMDLWGQGTLVTVSS
VL: EIVMTQSPSTLSASVGDRVIITCQASQSIGNYLSWYQQKPGKAPKRLIYSASTLPSGVPSRFSGSGSGAEFTLTISSLQPDDFATYYCQNNYWLAGYGHPFGQGTKLTVLR
modifications: vcMMAE conjugated to the cysteine at position 205 of the light chain
20 nM Efficacy (cytotoxicity of candidates against SAOS-2 cells) [3]: 63.8

B4: MYT8391 (antibody, V domains shown)
VH: EVQLVESGGGLVQPGGSLRLSCTASGLDFRRTNYICWVRQAPGKGLEWVGCIYIADVVHYYASWAKGRFTFSRDTSKNTVYLQMNSLRAEDTAVYYCARGADGGFHYGMDLWGQGTLVTVSS
VL: EIVMTQSPSTLSASVGDRVIITCQASQSIGNYLSWYQQKPGKAPKRLIYSASTLPSGVPSRFSGSGSGAEFTLTISSLQPDDFATYYCQNNYWLAGYGHPFGQGTKLTVL
notes: Humanized 15G7 variant (HC descriptor V106H); also called hu 15G7 HC his variant; hu 15G7 HC his scan variant
Affinity [1]: 0.483
Affinity [2]: 0.336

B5: MYT8415 (antibody, V domains shown)
VH: EVQLVESGGGLVQPGGSLRLSCTASGLDFRRTNYICWVRQAPGKGLEWVGCIYIADVVHYYASWAKGRFTFSRDTSKNTVYLQMNSLRAEDTAVYYCARGADGGFVYGMDLWGQGTLVTVSS
VL: EIVMTQSPSTLSASVGDRVIITCQASQSIGNYLSWYQQKPGKAPKRLIYSASTLPSGVPSRFSGSGSGAEFTLTISSLQPDDFATYYCQNNHWLAGYGHPFGQGTKLTVL
notes: Humanized 15G7 variant (LC descriptor Y108H); also called hu 15G7 LC his variant
Affinity [1]: 0.754
Affinity [2]: 1.11

B6: MYT8417 (antibody, V domains shown)
VH: EVQLVESGGGLVQPGGSLRLSCTASGLDFRRTNYICWVRQAPGKGLEWVGCIYIADVVHYYASWAKGRFTFSRDTSKNTVYLQMNSLRAEDTAVYYCARGADGGFVYGMDLWGQGTLVTVSS
VL: EIVMTQSPSTLSASVGDRVIITCQASQSIGNYLSWYQQKPGKAPKRLIYSASTLPSGVPSRFSGSGSGAEFTLTISSLQPDDFATYYCQNNYWLAHYGHPFGQGTKLTVL
notes: Humanized 15G7 variant (LC descriptor G112H); also called hu 15G7 LC his variant
Affinity [1]: 0.554
Affinity [2]: 0.76

B7: MYT8416 (antibody, V domains shown)
VH: EVQLVESGGGLVQPGGSLRLSCTASGLDFRRTNYICWVRQAPGKGLEWVGCIYIADVVHYYASWAKGRFTFSRDTSKNTVYLQMNSLRAEDTAVYYCARGADGGFVYGMDLWGQGTLVTVSS
VL: EIVMTQSPSTLSASVGDRVIITCQASQSIGNYLSWYQQKPGKAPKRLIYSASTLPSGVPSRFSGSGSGAEFTLTISSLQPDDFATYYCQNNYHLAGYGHPFGQGTKLTVL
notes: Humanized 15G7 variant (LC descriptor W109H); also called hu 15G7 LC his variant
Affinity [1]: 1.15
Affinity [2]: 1.37

B8: MYT6118 (antibody, V domains shown)
VH: QEQLEESGGDLVKPGASLTLTCTASGLDFRRTNYICWVRQAPGKGLEWIGCIYIADVVHYYASWAKGRFTFSKTSSTTVTLQMTSLTAADTATYFCARGADGGFVYHMDLWGPGTLVTVSS
VL: DVVMTQTPASVSEPVGGTVTIKCQASQSIGNYLSWYQQKPGQRPKRLIYSASTLPSGVPSRFKGAGSGTEFTLTISDLESADAATYYCQNNYWLAGYGHPFGGGTEVVVK
notes: chimeric rabbit 15G7 variant (rabbit variable domains, human constant regions); also called 15G7 VH G107H
binding result [4]: no binding (tested: 50 nM LRRC15)

B9: MYT6121 (antibody, V domains shown)
VH: QEQLEESGGDLVKPGASLTLTCTASGLDFRRTNYICWVRQAPGKGLEWIGCIYIADVVHYYASWAKGRFTFSKTSSTTVTLQMTSLTAADTATYFCARGADGGFVYGMDHWGPGTLVTVSS
VL: DVVMTQTPASVSEPVGGTVTIKCQASQSIGNYLSWYQQKPGQRPKRLIYSASTLPSGVPSRFKGAGSGTEFTLTISDLESADAATYYCQNNYWLAGYGHPFGGGTEVVVK
notes: chimeric rabbit 15G7 variant (rabbit variable domains, human constant regions); also called 15G7 VH L110H
binding result [4]: binds

B10: MYT6119 (antibody, V domains shown)
VH: QEQLEESGGDLVKPGASLTLTCTASGLDFRRTNYICWVRQAPGKGLEWIGCIYIADVVHYYASWAKGRFTFSKTSSTTVTLQMTSLTAADTATYFCARGADGGFVYGHDLWGPGTLVTVSS
VL: DVVMTQTPASVSEPVGGTVTIKCQASQSIGNYLSWYQQKPGQRPKRLIYSASTLPSGVPSRFKGAGSGTEFTLTISDLESADAATYYCQNNYWLAGYGHPFGGGTEVVVK
notes: chimeric rabbit 15G7 variant (rabbit variable domains, human constant regions); also called 15G7 VH M108H
binding result [4]: binds

B11: MYT6120 (antibody, V domains shown)
VH: QEQLEESGGDLVKPGASLTLTCTASGLDFRRTNYICWVRQAPGKGLEWIGCIYIADVVHYYASWAKGRFTFSKTSSTTVTLQMTSLTAADTATYFCARGADGGFVYGMHLWGPGTLVTVSS
VL: DVVMTQTPASVSEPVGGTVTIKCQASQSIGNYLSWYQQKPGQRPKRLIYSASTLPSGVPSRFKGAGSGTEFTLTISDLESADAATYYCQNNYWLAGYGHPFGGGTEVVVK
notes: chimeric rabbit 15G7 variant (rabbit variable domains, human constant regions); also called 15G7 VH D109H
binding result [4]: binds

B12: MYT3315-c-ADC (antibody, human IgG1, kappa, V domains shown)
VH: EVQLVESGGGLVQPGGSLRLSCAVSGFSLTSYGVHWVRQATGKGLEWLGVIWAGGSTNYNSALMSRLTISKENAKSSVYLQMNSLRAGDTAMYYCATHMITEDYYGMDYWGQGTTVTVSS
VL: DIVMTQSPDSLAVSLGERATINCKSSQSLLNSRTRKNYLAWYQQKPGQSPKLLIYWASTRHSGVPDRFSGSGSGTDFTLTISSLQAEDVAVYYCKQSYNLPTFGGGTKVEIKR
modifications: vcMMAE conjugated to the cysteine at position 205 of the light chain
20 nM Efficacy (cytotoxicity of candidates against SAOS-2 cells) [3]: 22

B13: MYT2737-c-ADC (antibody, human IgG1, kappa, V domains shown)
VH: EVQLVQSGAEVKKPGASVKVSCKASGYKFSSYWIEWVKQAPGQGLEWIGEILPGSDTTNYNEKFKDRATFTSDTSINTAYMELSRLRSDDTAVYYCARDRGNYRAWFGYWGQGTLVTVSS
VL: DIQMTQSPSSLSASVGDRVTITCRASQDISNYLNWYQQKPGGAVKFLIYHTSRLHSGVPSRFSGSGSGTDYTLTISSLQPEDFATYFCQQGEALPWTFGGGTKVEIKR
modifications: vcMMAE conjugated to the cysteine at position 205 of the light chain
20 nM Efficacy (cytotoxicity of candidates against SAOS-2 cells) [3]: 20.2
